Earlier results in patent US20060289354A1, “Method and composition to control the growth of microorganisms in aqueous systems and on substrates” (Buckman Laboratories International, Inc., priority 2005, published 2006).
Where two headings read alike, the source gives them in different places.

Conditions: for shelf life: original sealed package

lactoperoxidase [LP]
effect of exposure to elevated temperature (>65° C. for short time (10 minutes)): denaturation of the protein and loss of the activity | shelf life (8° C.): ≥ 2 years | shelf life (20° C.): at least 1 year | optimal pH (typical commercial form): 5.0-6.5
